Consider one substance from article PMC4300268.

For the test, the target named is Plu4264 from Photorhabdus luminescens subsp. laumondii TTO1 (Photorhabdus luminescens subsp. laumondii TTO1). The test is described as follows: crystal structure.

A word on the stoichiometry N: it is a count of units in the complex or per binding partner. “Plu4264 from Photorhabdus luminescens subsp. laumondii TTO1 (natural protein)” showed a stoichiometry N of 2.
